In assay [1] the target is full-length human TLR4 expressed as fusion protein with GAL4 (pTLR4) (human). Nature of the assay: flow cytometry of pSPA-mutant + pTLR4 transfected HEK293 cells stained with isotype control antibody [A)(iii]. For orientation: Flow cytometry measures light scatter and fluorescence of single cells or particles in a stream.
Assay [2] shares this target. Briefly: flow cytometry of pSPA + pTLR4 transfected HEK293 cells stained with isotype control antibody [A)(iii].
For assay [3] the target is unchanged. Nature of the assay: cell-based or functional assay.

(IC) (antibody): the % positive cells in region R in assay [1] came out at 1.65%; in assay [2] it was 1.06%.
For “SPA-mutant lacking SPA4 peptide region, expressed as fusion protein with VP16 (pSPA-mutant) (from UniProt Q8IWL2 21-248)”, in assay [3], the LPS-induced NF-κB luciferase reporter activity in co-transfected HEK293 cells was 44 RLU.

(Values after patent US20140256613A1.)
